Data published in publication PMC12432433.

What was measured:
[1] = target: LbXyn43B/Thr274Ala (Levilactobacillus brevis DSM 1269); experiment: SEC; Sephacryl S-300 (110 mL), 0.1 mL/min, 50 mM sodium phosphate, 150 mM NaCl, pH 7.0; calibrated with molecular weight standards of 20-700 kDa; apparent molecular mass
[2] = target: LbXyn43B/Thr274Ala (Levilactobacillus brevis DSM 1269); experiment: SEC-MALS; OMNISEC multi-detection SEC: Superdex 200 Increase 10/300 GL, light scattering (RALS 90°, LALS 7°), refractive index, viscometer, UV/VIS; 50 µL of 4.5 mg/mL injected in triplicate; 50 mM sodium phosphate, pH 7, 150 mM NaCl; 0.5 mL/min
[3] = target: β-D-xylosidase LbXyn43B from Levilactobacillus brevis DSM1269 (Levilactobacillus brevis DSM 1269); experiment: crystal structure; X-ray, 1.9 Å, space group P 1 21 1, four chains (A-D); crystals from 27-29% PEG 1500, 60-140 mM malonate-imidazole-borate buffer, pH 4.0-4.5, 4°C
[4] = target: β-D-xylosidase LbXyn43B from Levilactobacillus brevis DSM1269 (Levilactobacillus brevis DSM 1269); experiment: SEC; Sephacryl S-300 (110 mL), 0.1 mL/min, 50 mM sodium phosphate, 150 mM NaCl, pH 7.0; calibrated with molecular weight standards of 20-700 kDa; apparent molecular mass
[5] = target: β-D-xylosidase LbXyn43B from Levilactobacillus brevis DSM1269 (Levilactobacillus brevis DSM 1269); experiment: SEC-MALS; OMNISEC multi-detection SEC: Superdex 200 Increase 10/300 GL, light scattering (RALS 90°, LALS 7°), refractive index, viscometer, UV/VIS; 50 µL of 4.5 mg/mL injected in triplicate; 50 mM sodium phosphate, pH 7, 150 mM NaCl; 0.5 mL/min

Substance | stoichiometry N [1] | fraction of sample in peak 1 (tetramer) [2] | stoichiometry N [2] | stoichiometry N [3] | stoichiometry N [4] | fraction of sample in peak 1 (tetramer) [5] | stoichiometry N [5]
LbXyn43B/Thr274Ala (enzyme) | 3 | 91.3% | 4 | – | – | – | –
β-D-xylosidase LbXyn43B from Levilactobacillus brevis DSM1269 (enzyme) | – | – | – | 4 | 4 | 84.9% | 4
